Measured values published in patent publication KR20190132616A (dated 2019).

T1: 재조합 hAng-2 (C-His, R&D Systems) (human, UniProt O15123 19-496)
T1 construct: Bought protein; also called 인간 Ang-2 단백질
T1 sequence: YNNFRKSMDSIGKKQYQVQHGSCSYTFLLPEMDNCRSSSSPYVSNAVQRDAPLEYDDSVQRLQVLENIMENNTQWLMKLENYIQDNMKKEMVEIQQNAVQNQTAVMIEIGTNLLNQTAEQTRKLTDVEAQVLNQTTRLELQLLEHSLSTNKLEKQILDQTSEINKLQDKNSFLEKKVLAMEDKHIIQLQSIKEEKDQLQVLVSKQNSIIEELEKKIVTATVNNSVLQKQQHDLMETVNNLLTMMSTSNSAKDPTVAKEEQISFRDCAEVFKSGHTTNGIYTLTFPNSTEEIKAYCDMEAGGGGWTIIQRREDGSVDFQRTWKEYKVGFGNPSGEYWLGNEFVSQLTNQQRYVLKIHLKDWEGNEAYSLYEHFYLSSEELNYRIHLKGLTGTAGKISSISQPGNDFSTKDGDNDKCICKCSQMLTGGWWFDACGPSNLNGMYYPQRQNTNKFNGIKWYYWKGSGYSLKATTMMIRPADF

B1: SAIT-ANG2-AB-m10D6 (antibody, V domains shown)
VH: DVQLQESGPGLVKPSQSLSLTCTVTGYSITSDYAWNWIRQFPGNKLEWMGYINYSGNTDYNPSLKSRSSITRDTSKNQFFLQLNSVTTGDTATYYCARGNFEGAMDYWGQGTSVTVSS
VL: SIVMTQTPKFLLVSAGDRVTITCKASQSVSNDVAWYQQKPGQSPKLLIYYASNRYPGVPDRFTGSGYGTDFTFTISTVQAEDLAVYFCQQDYSSPWTFGGGTKLEIK
notes: also called 10D6 항체; 10D6 anti-Ang2 항체
B2: Ang2 단백질(R&D systems) (ligand)
chain: YNNFRKSMDSIGKKQYQVQHGSCSYTFLLPEMDNCRSSSSPYVSNAVQRDAPLEYDDSVQRLQVLENIMENNTQWLMKLENYIQDNMKKEMVEIQQNAVQNQTAVMIEIGTNLLNQTAEQTRKLTDVEAQVLNQTTRLELQLLEHSLSTNKLEKQILDQTSEINKLQDKNSFLEKKVLAMEDKHIIQLQSIKEEKDQLQVLVSKQNSIIEELEKKIVTATVNNSVLQKQQHDLMETVNNLLTMMSTSNSAKDPTVAKEEQISFRDCAEVFKSGHTTNGIYTLTFPNSTEEIKAYCDMEAGGGGWTIIQRREDGSVDFQRTWKEYKVGFGNPSGEYWLGNEFVSQLTNQQRYVLKIHLKDWEGNEAYSLYEHFYLSSEELNYRIHLKGLTGTAGKISSISQPGNDFSTKDGDNDKCICKCSQMLTGGWWFDACGPSNLNGMYYPQRQNTNKFNGIKWYYWKGSGYSLKATTMMIRPADF
notes: also called 인간 Ang2 단백질 (R&D systems; 623-AN-025/CF)

Columns and labels:
[1] = molecular target: Mutant Ang2 A449 (alanine), FLAG-tagged (human) (UniProt O15123); test: ELISA, antibody coated (1000nM), FLAG-Ang2 mutant 250ng, anti-FLAG-HRP, OD450 against native Ang2
[2] = molecular target: Mutant Ang2 D448 (alanine), FLAG-tagged (human) (UniProt O15123); test: as above
[3] = molecular target: Mutant Ang2 F469 (alanine), FLAG-tagged (human) (UniProt O15123); test: as above
[4] = molecular target: Mutant Ang2 I434 (alanine), FLAG-tagged (human) (UniProt O15123); test: as above
[5] = molecular target: Mutant Ang2 K468 (alanine), FLAG-tagged (human) (UniProt O15123); test: as above
[6] = molecular target: Mutant Ang2 N421 (alanine), FLAG-tagged (human) (UniProt O15123); test: as above
[7] = molecular target: Mutant Ang2 N467 (alanine), FLAG-tagged (human) (UniProt O15123); test: as above
[8] = molecular target: Mutant Ang2 P419 (alanine), FLAG-tagged (human) (UniProt O15123); test: as above
[9] = molecular target: Mutant Ang2 P452 (alanine), FLAG-tagged (human) (UniProt O15123); test: as above
[10] = molecular target: Mutant Ang2 Q418 (alanine), FLAG-tagged (human) (UniProt O15123); test: as above
[11] = molecular target: Mutant Ang2 S417 (alanine), FLAG-tagged (human) (UniProt O15123); test: as above
[12] = molecular target: Mutant Ang2 Y460 (alanine), FLAG-tagged (human) (UniProt O15123); test: as above
[13] = molecular target: T1, 재조합 hAng-2 (C-His, R&D Systems); test: SPR, BIAcore T100; hAng-2 (C-His) captured by anti-His antibody on CM5 chip, antibody flowed from 100 nM in 2-fold dilutions
hTie2-Fc (R&D Systems) = molecular target: T2, hTie2-Fc (R&D Systems) (human, UniProt Q02763 23-745); test: complex ELISA: Tie2-Fc coated, Ang2 0.25 ug/ml and 10D6 2 ug/ml added, anti-mouse IgG-HRP
T2 construct: Bought fusion protein, coated on the plate; also called hTie-2/Fc 융합 단백질; not shown: Fc of human IgG1
T2 sequence (Q02763 23-745 limits assumed): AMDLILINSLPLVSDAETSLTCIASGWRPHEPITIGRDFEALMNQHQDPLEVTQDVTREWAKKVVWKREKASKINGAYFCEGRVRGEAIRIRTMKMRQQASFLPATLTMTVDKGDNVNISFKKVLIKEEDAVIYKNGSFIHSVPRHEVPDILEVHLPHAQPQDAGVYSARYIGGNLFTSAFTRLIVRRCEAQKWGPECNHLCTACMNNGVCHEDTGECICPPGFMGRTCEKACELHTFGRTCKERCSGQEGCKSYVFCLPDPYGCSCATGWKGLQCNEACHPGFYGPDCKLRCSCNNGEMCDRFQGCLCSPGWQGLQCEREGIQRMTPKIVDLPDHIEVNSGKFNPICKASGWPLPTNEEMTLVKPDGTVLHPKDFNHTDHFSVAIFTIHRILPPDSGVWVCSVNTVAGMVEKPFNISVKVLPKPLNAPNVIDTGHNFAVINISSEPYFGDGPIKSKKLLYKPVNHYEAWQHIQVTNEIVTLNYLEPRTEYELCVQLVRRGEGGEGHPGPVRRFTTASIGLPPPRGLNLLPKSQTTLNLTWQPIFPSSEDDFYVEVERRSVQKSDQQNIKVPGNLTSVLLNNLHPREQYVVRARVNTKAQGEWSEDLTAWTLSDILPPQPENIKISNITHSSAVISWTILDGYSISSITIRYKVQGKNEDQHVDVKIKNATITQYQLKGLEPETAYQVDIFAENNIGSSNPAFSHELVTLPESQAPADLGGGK

| Binder | native Ang2와의 결합력에 대한 Mutant Ang2 와의 결합력(%) [1] [%] | native Ang2와의 결합력에 대한 Mutant Ang2 와의 결합력(%) [2] [%] | native Ang2와의 결합력에 대한 Mutant Ang2 와의 결합력(%) [3] [%] | native Ang2와의 결합력에 대한 Mutant Ang2 와의 결합력(%) [4] [%] | native Ang2와의 결합력에 대한 Mutant Ang2 와의 결합력(%) [5] [%] | native Ang2와의 결합력에 대한 Mutant Ang2 와의 결합력(%) [6] [%] | native Ang2와의 결합력에 대한 Mutant Ang2 와의 결합력(%) [7] [%] | native Ang2와의 결합력에 대한 Mutant Ang2 와의 결합력(%) [8] [%] | native Ang2와의 결합력에 대한 Mutant Ang2 와의 결합력(%) [9] [%] | native Ang2와의 결합력에 대한 Mutant Ang2 와의 결합력(%) [10] [%] | native Ang2와의 결합력에 대한 Mutant Ang2 와의 결합력(%) [11] [%] | native Ang2와의 결합력에 대한 Mutant Ang2 와의 결합력(%) [12] [%] | Kd [13] [nM] | binding result (hTie2-Fc (R&D Systems)) |
| --- | --- | --- | --- | --- | --- | --- | --- | --- | --- | --- | --- | --- | --- | --- |
| B1 | 97.9 | 105 | 109 | 109 | 110 | 109 | 107 | 41.1 | 102 | 38.9 | 101 | 103 | 8 |  |
| B2 |  |  |  |  |  |  |  |  |  |  |  |  |  | binds |
